Experimental data reported in patent US20250270341A1 (Alector, published 2025).
Changes are numbered by the printed parent chain.

T1: Full length mouse CD98hc on CHO cells (mouse, UniProt P10852 1-526)
T1 construct: CHO cells stably overexpressing it; also called CHO-mouse CD98hc; CHO-mCD98hc
T1 sequence: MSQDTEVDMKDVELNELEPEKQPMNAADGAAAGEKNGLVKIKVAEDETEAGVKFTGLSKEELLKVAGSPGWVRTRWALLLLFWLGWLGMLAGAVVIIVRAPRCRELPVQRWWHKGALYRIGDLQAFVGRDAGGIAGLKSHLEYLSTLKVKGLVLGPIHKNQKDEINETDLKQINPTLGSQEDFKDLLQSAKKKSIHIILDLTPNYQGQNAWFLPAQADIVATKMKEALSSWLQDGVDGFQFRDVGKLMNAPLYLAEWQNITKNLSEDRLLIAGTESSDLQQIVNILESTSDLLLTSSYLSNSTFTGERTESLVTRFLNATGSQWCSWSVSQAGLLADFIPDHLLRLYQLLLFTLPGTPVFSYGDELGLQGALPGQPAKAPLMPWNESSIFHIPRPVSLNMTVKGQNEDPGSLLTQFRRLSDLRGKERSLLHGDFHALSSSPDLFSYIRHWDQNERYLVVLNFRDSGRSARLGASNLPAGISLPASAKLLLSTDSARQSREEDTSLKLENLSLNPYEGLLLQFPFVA

T2: human CD98hc endogenously expressed on HCMEC/D3 cells (human)
T2 construct: human brain endothelial cell line
T2 chain: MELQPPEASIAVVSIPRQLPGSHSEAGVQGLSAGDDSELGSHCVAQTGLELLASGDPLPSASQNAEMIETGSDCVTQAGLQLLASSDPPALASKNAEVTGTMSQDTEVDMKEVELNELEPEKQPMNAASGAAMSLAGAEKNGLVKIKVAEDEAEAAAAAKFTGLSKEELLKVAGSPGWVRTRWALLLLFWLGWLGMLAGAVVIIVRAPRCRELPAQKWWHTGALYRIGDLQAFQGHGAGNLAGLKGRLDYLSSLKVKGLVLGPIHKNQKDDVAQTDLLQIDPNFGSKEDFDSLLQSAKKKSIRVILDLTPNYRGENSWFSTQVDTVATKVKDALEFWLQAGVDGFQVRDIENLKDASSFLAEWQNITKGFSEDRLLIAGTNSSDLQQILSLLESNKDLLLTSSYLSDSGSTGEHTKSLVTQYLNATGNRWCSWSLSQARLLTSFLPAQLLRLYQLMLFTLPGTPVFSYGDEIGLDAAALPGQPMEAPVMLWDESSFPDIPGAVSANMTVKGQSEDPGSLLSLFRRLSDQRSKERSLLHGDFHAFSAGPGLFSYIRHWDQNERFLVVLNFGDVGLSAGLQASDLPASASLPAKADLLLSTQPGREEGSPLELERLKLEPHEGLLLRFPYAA

T3: Full length human CD98hc on CHO cells (human)
T3 construct: CHO cells stably overexpressing it; also called CHO-human CD98hc; CHO-huCD98hc
T3 chain: T2 chain

B1: CD98HC.03.031 (antibody, V domains shown)
VH: QVQLQQSGAELVRPGVSVKISCKASGYTFTDYAMHWVKQSHAKSLEWIGVISTYYGDTTYNQKFKDKATMTVDKSSSTAYLELARLTSEDSAIYYCARVWLLSYAMDNWGQGTSVTVSS
VL: DIVMTQSQRFMSTSVGDGVRITCKASQNVRTAVAWYQQKPGQSPKALINLAPNRHTGVPDRFTARGSGTDFTLTISNVQSEDLADYFCLQHWNYPLTFGAGTKLELK
notes: hybridoma IgG
B2: CD98HC.04.011 (antibody, V domains shown)
VH: DVQLQESGPDLVKPSQSLSLTCSVTVYSFTSVYSWHWIRQFPGNKLEWMGYIHDSGTTNYNPSLKSRISVTRDTSKNQFFLQLNSVTTEDTATYYCARGRPYGYDGFAYWGQGTLVTVSA
VL: DIQMTQSSSYLSVSLGDRVTITCKASDHINNWLAWYQQKPGNAPRLLITGAVNLETGVPSRFSGSGSGKDYTLSITSLQTEDVATYYCQQYWSIPRTFGGGTNLEIK
notes: hybridoma IgG
B3: CD98HC.04.009 (antibody, V domains shown)
VH: QVQLKESGPGLVAPSQSLSITCTVSGFSLTSYGVHWVRQPPGKGLEWLGVIWAGGSTYYNSALMSRLSISKDNAKSQVLLKMSSLQTDDTAMYYCARDNYGGVYLDVWGAGTTVTVSS
VL: ENVLTQSPASMSASPGEKVTMTCRASSSVSSSYLHWYQQKSGASPKLWIYSTSNLASGVPARFSGSGSGTSYSLTISSVEAEDAATYYCQQYSGYPLTFGSGTKLEIK
notes: hybridoma IgG
B4: CD98HC.04.006 (antibody, V domains shown)
VH: EVNLVESGGDLVQPGGSLRLSCATSGFTFTDYFMSWVRQPPGKALEWLGFIRNKAYGYTTEYSASVKGRFTISRDNSQSIFYLQMNTLRLEDSATYYCARGPFISTAPFAYWGQGTLVTVSA
VL: DIVMSQSPSSLAVSVGETVTMSCKSSQSLLYSSNQKNYLAWYQQKPGQSPKLLIYWGSTRESGVPDRFTGSGSGTDFTLTISSVKAEDLAVYYCQHYYGYPWTFGGGTKLEIK
notes: hybridoma IgG
B5: CD98HC.04.010 (antibody, V domains shown)
VH: QVQLQQSGAELMKPGASVKISCKATGYTFSTYWIEWVKQRPGHGLEWIGEILPGSGTTTYNEKFKGKATFTADTSSNTAYMQLSSLTSEDSAVYYCARRTVYYRYEGIDYWGQGTTLTVSS
VL: QIVLTQSPAIMSASPGEKVTITCSASSSVSYMFWFQQRPGTSPKLWIYTTSNLASGVPARFSGSGSGTSYSLTISRMEAEDAATYYCQQKNNYPFTFGSGTKLEIK
notes: hybridoma IgG
B6: CD98HC.03.002 (antibody, V domains shown)
VH: DVQLVESGGGLVQPGGSRKLSCAASGFTFSTFGMHWVRQAPEKGLEWVAYISGGSTNIYYADTVKGRFTISRDNPKNTLFLQMTSLRSEDTAMYYCARETTLLATNFDYWGQGTTLTVSS
VL: DIQMTQTTSSLSASLGDRVTISCRASQDISNYLNWYQQKPDGTVKLLIYYTSRLHSGVPSRFSGSGSGTDYSLTISNLEQEDIATYFCQQGSTLPRTFGGGTKLEIK
notes: hybridoma IgG
B7: CD98HC.04.003 (antibody, V domains shown)
VH: QVQLQQSGAELAKPGASLKMSCKASGYTFTDYYIHWVKQRPGQDLEWIGYINPNSAYTDSNQKFKDKATLTADKSSNTAYMQLSSLTSEDSAVYYCARKGHFYAPSFAYWGQGTLVTVSA
VL: B6 VL with T69A, E79Q, S92D, R96Y, K107E
notes: hybridoma IgG
B8: CD98HC.04.012 (antibody, V domains shown)
VH: QVQLQQSGADLVRPGDSVKISCKGSGYTFTDNTLHWVKQSHAKSLEWIGVISPYYGDASYNQKFKGKATMTVDKSSSTAYMELARLTSEDSAIYYCARVGGRLRLGYYFDHWGQGTTLTVSS
VL: NIMMTQSPSSLAVSAGEKVTMNCKSSQSVLSSSNQKNYLAWYQQKPGQSPKLLIYWASTRESGVPARFTGSGSGTDFSLTITSVQAEDLAVYYCLQYLSSYTFGGGTKLEIK
notes: hybridoma IgG

Molecular target: T1, Full length mouse CD98hc on CHO cells
Experiment: FACS, hybridoma supernatant

Row | MFI ratio over secondary antibody | Binder
1 | 1.2 | B1
2 | 1.1 | B2
3 | 1.1 | B3
4 | 1.1 | B4
5 | 1.1 | B5
6 | 1 | B6
7 | 1.1 | B7
8 | 1.1 | B8

Molecular target: T2, human CD98hc endogenously expressed on …
Experiment: FACS, hybridoma supernatant

Row | MFI ratio over secondary antibody | Binder
9 | 198 | B1
10 | 192 | B2
11 | 131 | B3
12 | 197 | B4
13 | 151 | B5
14 | 233 | B6
15 | 13.8 | B7
16 | 155 | B8

Molecular target: T3, Full length human CD98hc on CHO cells
Experiment: FACS, hybridoma supernatant

Row | MFI ratio over secondary antibody | Binder
17 | 38.9 | B1
18 | 31 | B2
19 | 18.5 | B3
20 | 39 | B4
21 | 26.5 | B5
22 | 28.5 | B6
23 | 3.2 | B7
24 | 28.3 | B8

Molecular target: T1, Full length mouse CD98hc on CHO cells
Experiment: FACS, hybridoma supernatant
Remark: another data set of the same source
Source text: The IgG positive hybridoma supernatants (898 in total) were initially screened for their ability to differentially bind CHO cells overexpressing human or mouse CD98hc cells compared to CHO parental cells by FACS. Overexpressing cells were harvested, washed, and labeled with various concentrations and combinations of CellTrace cell proliferation dyes CFSE and Violet (ThermoFisher, Cat #C34554 and Cat #34557, respectively) to create uniquely barcoded cell populations. Barcoded cells (5×10⁴ of each cell population) were aliquoted into 96-well U-bottom plates and incubated with 50 μl of hybridoma cell culture supernatant or 1 μg/ml of commercially available purified mouse anti-human CD98hc monoclonal antibody (Sigma Aldrich, Cat #SAB 4700503) and rat anti-mouse CD98hc antibody (Bio-Rad Laboratories, Hercules, CA, Cat #MCA2684) on ice for 30 minutes. […] Following this secondary antibody incubation, the cells were again washed twice with ice-cold FACS buffer and resuspended in a final volume of 50 μl of FACS buffer containing 0.25 μl/well propidium iodide (BD Biosciences, Cat #556463). Binding intensity on cells was analyzed using the FACS Canto system (BD Biosciences), with sorting gates drawn to exclude dead (i.e., propidium iodide-positive) cells. For each barcoded cell population, the ratio of APC Mean Fluorescence Intensity (MFI) divided by secondary antibody MFI was calculated for each anti-CD98hc hybridoma supernatant tested and reported in Table 5.

Row | binding result | Binder
25 | no binding | B1
26 | no binding | B2
27 | no binding | B3
28 | no binding | B4
29 | no binding | B5
30 | no binding | B6
31 | no binding | B7
32 | no binding | B8

Molecular target: T4, Human TfR-AVI-His (control) (human, UniProt P02786 89-760)
T4 construct: control protein; also called Avi-His-tagged human TfR; human transferrin receptor
T4 sequence (P02786 89-760 limits assumed): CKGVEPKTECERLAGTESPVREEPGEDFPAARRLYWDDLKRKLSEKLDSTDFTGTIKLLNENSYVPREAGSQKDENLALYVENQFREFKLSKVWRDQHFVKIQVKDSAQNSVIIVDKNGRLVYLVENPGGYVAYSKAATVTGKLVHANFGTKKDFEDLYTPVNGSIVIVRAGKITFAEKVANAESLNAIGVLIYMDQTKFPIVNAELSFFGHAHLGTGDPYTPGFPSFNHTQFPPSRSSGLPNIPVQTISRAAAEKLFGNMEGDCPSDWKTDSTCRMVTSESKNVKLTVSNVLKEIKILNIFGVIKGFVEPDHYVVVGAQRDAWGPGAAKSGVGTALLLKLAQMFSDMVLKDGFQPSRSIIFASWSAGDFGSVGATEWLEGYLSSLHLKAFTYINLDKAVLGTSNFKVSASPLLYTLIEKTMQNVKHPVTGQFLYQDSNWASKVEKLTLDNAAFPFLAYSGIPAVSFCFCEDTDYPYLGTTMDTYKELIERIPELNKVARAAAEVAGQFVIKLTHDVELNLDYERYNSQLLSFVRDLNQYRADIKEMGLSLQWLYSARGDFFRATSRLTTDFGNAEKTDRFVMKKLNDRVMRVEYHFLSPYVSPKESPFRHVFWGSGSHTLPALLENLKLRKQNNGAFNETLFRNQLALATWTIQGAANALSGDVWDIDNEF
Experiment: ELISA, hybridoma supernatant
Experimental: Briefly, 96-well polystyrene plates were coated with 5 μg/ml of streptavidin (Thermo Fisher, Cat #PI21125) in coating buffer (0.05M carbonate buffer, pH 9.6, Sigma, Cat #C3041) overnight at 4° C. Coated plates were then blocked with ELISA diluent (PBS+0.5% BSA+0.05% Tween20) for one hour. Blocking buffer was removed and human, cyno, or mouse Avi-His-tagged CD98hc and Avi-His-tagged human TfR polypeptides were added at 1 μg/ml in ELISA diluent and captured for 1 hour at room temperature. After washing three times with 300 μl of PBST (PBS+0.05% Tween20, Thermo 28352), the hybridoma cell culture supernatants or 1 μg/ml of commercially available purified mouse anti-human CD98hc monoclonal antibody (Sigma Aldrich, Cat #SAB 4700503) and rat anti-mouse CD98hc antibody (Bio-Rad Laboratories, Hercules, CA, Cat #MCA2684) were added (50 μl/well) to each well. After 30 minutes of incubation at room temperature, the plates were washed three times with 300 μl of PBST. […] After a final set of washes (3×300 μl in PBST), 50 μl/well of BioFx TMB substrate (Surmodics, Eden Praire, MN, Cat #TMBW-1000-01) was added to the wells. The reaction was then quenched after 5-10 mins with 50 μl/well of 2N sulfuric acid. The plates were read for absorbance at 450 nm on a SpectraMax M5 (Molecular Devices, Sunnyvale, CA) using SoftMax Pro software.

Row | OD450 | Binder
33 | 0.0873 | B1
34 | 0.0705 | B2
35 | 0.0743 | B3
36 | 0.129 | B4
37 | 0.102 | B5
38 | 0.073 | B6
39 | 0.0601 | B7
40 | 0.074 | B8
